We go through 94 variants from the supplement of paper PMC10567573.

The labels stand for the following.
B1: STX11 (parent)
chain: FQRAMHDYNQAEMKQRDNCKIRIQ
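Further: lentivirally expressed fusions sorted by FACS into six bins by GFP to DsRed ratio, PSI derived from sequencing read proportions per bin multiplied by bin number.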

The variants in this series derive from B1. Put plainly: protein stability index of a GFP-peptide fusion (GPS, HEK-293T) (PSI 1-6); higher = more stable. As to conditions: c terminus: a fixed tail appended.
For the variant FQRAMHDYNQAEFKQRDNCKIRIQ, the protein stability index is 2.5. Next, FQRAMHDYNQAEIKQRDNCKIRIQ: 2.85; FQRAMHDYNQAEHKQRDNCKIRIQ: 2.65; FQRAMHDYNQAENKQRDNCKIRIQ: 3.5. Next, FQRAMHDYNQAEYKQRDNCKIRIQ: 2.62; FQRAMHDYNQAEKKQRDNCKIRIQ: 1.98; FQRAMHDYNQAERKQRDNCKIRIQ: 2.1. Next, FQRAMHDYNQAESKQRDNCKIRIQ: 3.03; FQRAMHDYNQAEWKQRDNCKIRIQ: 2.5. With FQRAMHDYNQAETKQRDNCKIRIQ, the protein stability index is 2.79. For FQRAMHDYNQAECKQRDNCKIRIQ the value was 2.49; for FQRAMHDYNQAEEKQRDNCKIRIQ, 2.49; for FQRAMHDYNQAEGKQRDNCKIRIQ, 3.49. Next, FQRAMHDYNQAELKQRDNCKIRIQ: 2.35; FQRAMHDYNQAEDKQRDNCKIRIQ: 3.71; FQRAMHDYNQAEQKQRDNCKIRIQ: 2.62. Turning to FQRAMHDYNQAEVKQRDNCKIRIQ, the protein stability index stood at 2.52. Next, FQRAMHDYNQAEAKQRDNCKIRIQ: 2.95. Next, FQRAMHDYNQAEPKQRDNCKIRIQ: 3.11; FQRAMHDYNPAEMKQRDNCKIRIQ: 2.01. Next, FQRAMHDYNAAEMKQRDNCKIRIQ: 3.1; FQRAMHDYNWAEMKQRDNCKIRIQ: 1.73. Take FQRAMHDYNVAEMKQRDNCKIRIQ: the protein stability index came out at 2.67.

As for FQRAMHDYNLAEMKQRDNCKIRIQ, the protein stability index was 2.36. For FQRAMHDYNYAEMKQRDNCKIRIQ the value was 2.17. Turning to FQRAMHDYNDAEMKQRDNCKIRIQ, the protein stability index turned out to be 2.59.

For the variant FQRAMHDYNSAEMKQRDNCKIRIQ, the protein stability index is 3.35. For FQRAMHDYNCAEMKQRDNCKIRIQ the value was 1.87. Next, FQRAMHDYNIAEMKQRDNCKIRIQ: 2.31; FQRAMHDYNGAEMKQRDNCKIRIQ: 2.45. For FQRAMHDYNEAEMKQRDNCKIRIQ the value was 2.74.

As for FQRAMHDYNMAEMKQRDNCKIRIQ, the protein stability index came to 1.92.

Turning to FQRAMHDYNFAEMKQRDNCKIRIQ, the protein stability index is 1.81. Next, FQRAMHDYNNAEMKQRDNCKIRIQ: 2.63; FQRAMHDYNTAEMKQRDNCKIRIQ: 2.39; FQRAMHDYNRAEMKQRDNCKIRIQ: 2.06. Regarding FQRAMHDYNKAEMKQRDNCKIRIQ, the protein stability index amounted to 2.73. Next, FQRAMHDYNHAEMKQRDNCKIRIQ: 2.16; FQRAMHDYNQAEMKMRDNCKIRIQ: 1.86. Next, FQRAMHDYNQAEMKFRDNCKIRIQ: 2.01; FQRAMHDYNQAEMKPRDNCKIRIQ: 2.85; FQRAMHDYNQAEMKLRDNCKIRIQ: 2.32. For FQRAMHDYNQAEMKCRDNCKIRIQ the value was 2.29; for FQRAMHDYNQAEMKYRDNCKIRIQ, 3.08. In the case of FQRAMHDYNQAEMKKRDNCKIRIQ, the protein stability index amounted to 2.15. Next, FQRAMHDYNQAEMKVRDNCKIRIQ: 2.56.

For FQRAMHDYNQAEMKTRDNCKIRIQ, the protein stability index stood at 3.18. Take FQRAMHDYNQAEMKGRDNCKIRIQ: the protein stability index turned out to be 2.45.

As to FQRAMHDYNQAEMKDRDNCKIRIQ, the protein stability index turned out to be 2.74.

For the variant FQRAMHDYNQAEMKARDNCKIRIQ, the protein stability index was determined as 2.23. As to FQRAMHDYNQAEMKWRDNCKIRIQ, the protein stability index came out at 3.09. Next, FQRAMHDYNQAEMKIRDNCKIRIQ: 2.17; FQRAMHDYNQAEMKRRDNCKIRIQ: 2.64; FQRAMHDYNQAEMKNRDNCKIRIQ: 2.86.

FQRAMHDYNQAEMKERDNCKIRIQ: the protein stability index was found to be 3.2. Next, FQRAMHDYNQAEMKSRDNCKIRIQ: 2.71; FQRAMHDYNQAEMKHRDNCKIRIQ: 2.57; FQRAMHDSNQAEMKQRDNCKIRIQ: 3.45.

On to FQRAMHDVNQAEMKQRDNCKIRIQ, for which the protein stability index was determined as 2.89. Next, FQRAMHDNNQAEMKQRDNCKIRIQ: 3.83; FQRAMHDMNQAEMKQRDNCKIRIQ: 3.15; FQRAMHDPNQAEMKQRDNCKIRIQ: 3.32. Next, FQRAMHDDNQAEMKQRDNCKIRIQ: 3.4; FQRAMHDKNQAEMKQRDNCKIRIQ: 3.58.

For the variant FQRAMHDFNQAEMKQRDNCKIRIQ, the protein stability index was 2.52. For FQRAMHDHNQAEMKQRDNCKIRIQ the value was 3. For FQRAMHDENQAEMKQRDNCKIRIQ the value was 3.47. Consider FQRAMHDCNQAEMKQRDNCKIRIQ, for which the protein stability index was determined as 2.62. Next, FQRAMHDQNQAEMKQRDNCKIRIQ: 3.83. Next, FQRAMHDGNQAEMKQRDNCKIRIQ: 3.39; FQRAMHDINQAEMKQRDNCKIRIQ: 3.08. For the variant FQRAMHDRNQAEMKQRDNCKIRIQ, the protein stability index was determined as 2.61. For FQRAMHDWNQAEMKQRDNCKIRIQ the value was 2.08; for FQRAMHDTNQAEMKQRDNCKIRIQ, 3.62; for FQRAMHDLNQAEMKQRDNCKIRIQ, 2.39. Next, FQRAMHDYNQAQMKQRDNCKIRIQ: 2.31; FQRAMHDYNQAFMKQRDNCKIRIQ: 2.29. Regarding FQRAMHDYNQAWMKQRDNCKIRIQ, the protein stability index amounted to 2.39.

As to FQRAMHDYNQARMKQRDNCKIRIQ, the protein stability index is 2.83.

On to FQRAMHDYNQAAMKQRDNCKIRIQ, for which the protein stability index is 2.32. Regarding FQRAMHDYNQAHMKQRDNCKIRIQ, the protein stability index stood at 2.14.

On to FQRAMHDYNQAMMKQRDNCKIRIQ, for which the protein stability index is 1.6. Consider FQRAMHDYNQANMKQRDNCKIRIQ, for which the protein stability index worked out at 2.29.

Consider FQRAMHDYNQAGMKQRDNCKIRIQ, for which the protein stability index was 2.05.

Turning to FQRAMHDYNQAKMKQRDNCKIRIQ, the protein stability index was 2.31. For FQRAMHDYNQACMKQRDNCKIRIQ the value was 2.11; for FQRAMHDYNQAIMKQRDNCKIRIQ, 2.44; for FQRAMHDYNQADMKQRDNCKIRIQ, 2.5. For FQRAMHDYNQALMKQRDNCKIRIQ the value was 2.42; for FQRAMHDYNQAVMKQRDNCKIRIQ, 2.52; for FQRAMHDYNQAPMKQRDNCKIRIQ, 2.02. For FQRAMHDYNQASMKQRDNCKIRIQ the value was 2.23. FQRAMHDYNQATMKQRDNCKIRIQ: the protein stability index was found to be 2.62.

Take FQRAMHDYNQAYMKQRDNCKIRIQ: the protein stability index came out at 1.67.
